Measured values taken from paper PMC7039627.
pKd: −log10 of the molar value.

Target: extracellular domain of hCTLA-4 (Homo sapiens) (UniProt P16410)
Assay: SPR

Chain of UniProt P16410 (P16410 36-161): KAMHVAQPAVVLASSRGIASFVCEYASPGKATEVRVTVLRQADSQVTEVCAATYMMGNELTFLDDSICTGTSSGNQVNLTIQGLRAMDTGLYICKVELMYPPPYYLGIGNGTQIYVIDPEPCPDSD

pKd: 8.43
Substance: Ipilimumab (antibody)
